Results: the supplement of paper PMC7877785
± gives the uncertainty stated by the source.

Assay: self-splicing fitness, log relative to wild type (ln ratio); higher = more splicing; Tetrahymena group I intron in knt gene, E. coli kanamycin selection, DiMSum; sequences stand for … in CUCUCU…GGAGGGAAAAGUUAUCAGGCAUGCACCUGGUAGCUAGUCUUUAAACCAAUAGAUUGCAUCGGUUUAAAAGGCAAGACCGUCAAAUUGCGGGAAAGGGGUCAACAGCCGUUCAGUACCAAGUCUCAGGGGAAACUUUGAGAUGGCCUUGCAAAGGGUAUGGUAAUAAGCUGACGGACAUGGUCCUAACCACGCAGCCAAGUCCUAAGUCAACAGAUCUUCUGUUGAUAUGGAUGCAGUUCACAGACUAAAUGUCGGUCGGGGAAGAUGUAUUCUUCUCAUAAGAUAUAGUCGGACCUCUCCUUAAUGGGAGCUAGCGGAUGAAGUGAUGCAACACUGGAGCCGCUGGGAACUAAUUUGUAUGCGAAAGUAUAUUGAUUAGUUUUGGAGUACUCGUGGUCG
How it was run: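 Colonies from six replicate transformations of E. coli BL21(DE3) were pooled and amplicon-sequenced on an Illumina HiSeq 2500. The library placed an intron with all eight P1ex-region nucleotides randomised inside the knt kanamycin-resistance gene on pET-22b(+), and cells grew overnight at 37°C or 30°C on LB agar with or without 25 μg/mL kanamycin (plus 100 μg/mL carbenicillin, 50 μM IPTG, 0.2% rhamnose). Fitness is the DiMSum error-weighted combination of wild-type-normalised replicate fold changes, kanamycin versus none.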

Sequence	self-splicing fitness (ln) (30 °C)	self-splicing fitness (ln) (37 °C)
GGCCAGCAAUAUUACGAUCA	-2.93 ± 0.25	-1.53 ± 0.16
UUGUAGCAAUAUUACGCGCA	-0.824 ± 0.17	0.43 ± 0.19
ACUUAGCAAUAUUACGUCGA	-2.06 ± 0.16	-1.23 ± 0.16
UAUAAGCAAUAUUACGACGC	-3.44 ± 0.23	-1.19 ± 0.17
AACGAGCAAUAUUACGGUCA	-2.05 ± 0.21	-1.12 ± 0.2
CCUAAGCAAUAUUACGGUAU	-3.72 ± 0.23	-1.85 ± 0.24
CUUAAGCAAUAUUACGUCAC	-3.97 ± 0.29	-2.91 ± 0.3
GACAAGCAAUAUUACGGAGG	-4.57 ± 0.31	-2.08 ± 0.19
GUUCAGCAAUAUUACGGCGA	-1.16 ± 0.19	0.354 ± 0.18
AGUAAGCAAUAUUACGCCAA	-3.35 ± 0.29	-2.6 ± 0.24
GCCCAGCAAUAUUACGGGCU	-3.75 ± 0.16	-2.81 ± 0.15
AUAAAGCAAUAUUACGAGUC	-3.52 ± 0.13	-2.07 ± 0.14
GUAGAGCAAUAUUACGGGUU	-4.13 ± 0.3	-2.15 ± 0.22
UCCAAGCAAUAUUACGUCUA	-2.26 ± 0.13	-0.9 ± 0.11
AGCAAGCAAUAUUACGGUCC	-0.25 ± 0.07	-0.276 ± 0.081
CAGCAGCAAUAUUACGACUA	-0.351 ± 0.068	0.43 ± 0.081
GGUGAGCAAUAUUACGGCAU	-1.66 ± 0.25	-1.05 ± 0.28
GUUCAGCAAUAUUACGUGCU		-2.98 ± 0.28
AGUAAGCAAUAUUACGACCG	-1.03 ± 0.17	-0.428 ± 0.2

Sequence	self-splicing fitness (ln) (30 °C)	self-splicing fitness (ln) (37 °C)
CUUCAGCAAUAUUACGCAAA	-2.99 ± 0.26	-2.21 ± 0.33
CGUUAGCAAUAUUACGUCGU		-1.81 ± 0.33
CUUAAGCAAUAUUACGCCGG	-4.01 ± 0.33	-1.85 ± 0.25
CCGCAGCAAUAUUACGCCGU	-3.34 ± 0.27	-2.26 ± 0.22
UUCGAGCAAUAUUACGUCUU	-2.89 ± 0.31	-1.69 ± 0.39
UGAGAGCAAUAUUACGCGCG	-2.15 ± 0.2	-1.23 ± 0.24
UGGAAGCAAUAUUACGACAC	-2.87 ± 0.17	-3.13 ± 0.25
CAACAGCAAUAUUACGGCCU	-3.63 ± 0.16	-1.3 ± 0.12
CUGGAGCAAUAUUACGUGUC	-3.17 ± 0.2	-3.18 ± 0.27
AGCAAGCAAUAUUACGCAUA	-1.96 ± 0.14	-1.06 ± 0.15
GUGCAGCAAUAUUACGGUCC	-0.146 ± 0.15	0.0655 ± 0.22
UAGUAGCAAUAUUACGGCUA	0.21 ± 0.14	-0.257 ± 0.19
CUAGAGCAAUAUUACGUAUG	-0.333 ± 0.084	0.333 ± 0.11
GACUAGCAAUAUUACGGUUG	-1.25 ± 0.072	-0.449 ± 0.092
CGGUAGCAAUAUUACGUUGA	-3.27 ± 0.35	-1.76 ± 0.17
AAUUAGCAAUAUUACGACGA	-0.729 ± 0.12	-0.15 ± 0.2
AAGAAGCAAUAUUACGUUAC	-3.33 ± 0.17	-3.57 ± 0.25
UUUAAGCAAUAUUACGGGGU	-3.7 ± 0.22	-1.7 ± 0.19
CUAUAGCAAUAUUACGAAUA	-2.99 ± 0.34	-1.47 ± 0.22
